Experimental data taken from the supplement of paper PMC7877785.
± gives the uncertainty stated by the source.

Test: self-splicing fitness, log relative to wild type (ln ratio); higher = more splicing; Tetrahymena group I intron in knt gene, E. coli kanamycin selection, DiMSum; sequences stand for … in CUCUCU…GGAGGGAAAAGUUAUCAGGCAUGCACCUGGUAGCUAGUCUUUAAACCAAUAGAUUGCAUCGGUUUAAAAGGCAAGACCGUCAAAUUGCGGGAAAGGGGUCAACAGCCGUUCAGUACCAAGUCUCAGGGGAAACUUUGAGAUGGCCUUGCAAAGGGUAUGGUAAUAAGCUGACGGACAUGGUCCUAACCACGCAGCCAAGUCCUAAGUCAACAGAUCUUCUGUUGAUAUGGAUGCAGUUCACAGACUAAAUGUCGGUCGGGGAAGAUGUAUUCUUCUCAUAAGAUAUAGUCGGACCUCUCCUUAAUGGGAGCUAGCGGAUGAAGUGAUGCAACACUGGAGCCGCUGGGAACUAAUUUGUAUGCGAAAGUAUAUUGAUUAGUUUUGGAGUACUCGUGGUCG
How it was run: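 A randomised library covering all eight P1ex-region intron nucleotides was built with the intron in the knt kanamycin-resistance gene on pET-22b(+) and held in E. coli BL21(DE3). Cells were grown overnight at 37°C or 30°C on LB agar, with or without 25 μg/mL kanamycin, plus 100 μg/mL carbenicillin, 50 μM IPTG and 0.2% rhamnose, and pooled colonies were amplicon-sequenced on an Illumina HiSeq 2500. DiMSum fitness is the error-weighted combination of wild-type-normalised replicate fold changes, kanamycin versus none.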

Sequence | self-splicing fitness (ln) (30 °C) | self-splicing fitness (ln) (37 °C)
CAGUAGCAAUAUUACGUUGG | -1.56 ± 0.075 | -0.932 ± 0.1
CGGGAGCAAUAUUACGAAUU | -3.16 ± 0.34 | 
AAACAGCAAUAUUACGCAAG | -2.56 ± 0.13 | -1.8 ± 0.14
CCCAAGCAAUAUUACGGCAU | -3.63 ± 0.16 | -2.84 ± 0.17
CCAAAGCAAUAUUACGGUAC | -3.5 ± 0.24 | -3.13 ± 0.29
AUUAAGCAAUAUUACGUCAG | -3.01 ± 0.24 | -1.85 ± 0.21
AAUAAGCAAUAUUACGGGCG | -1.29 ± 0.086 | -0.752 ± 0.095
GCCAAGCAAUAUUACGGCGG | -3.3 ± 0.14 | -1.84 ± 0.16
CGGCAGCAAUAUUACGGCGG | -1.26 ± 0.11 | -0.79 ± 0.14
CGCGAGCAAUAUUACGUCUU | -2.32 ± 0.2 | -2.05 ± 0.24
CACGAGCAAUAUUACGACAA |  | -2.44 ± 0.28
UCCAAGCAAUAUUACGUCGA | -0.163 ± 0.075 | 0.376 ± 0.1
UCAUAGCAAUAUUACGGUGG | -3.13 ± 0.15 | -2.07 ± 0.17
UGGAAGCAAUAUUACGCGGG | -3.32 ± 0.24 | -1.29 ± 0.22
ACUGAGCAAUAUUACGACCU | -1.57 ± 0.11 | -0.583 ± 0.13
AGCCAGCAAUAUUACGCAGG | -3.44 ± 0.14 | -2.62 ± 0.18
CGUUAGCAAUAUUACGGAUU | -2.33 ± 0.23 | -2.21 ± 0.24
CCUGAGCAAUAUUACGAGCU |  | -1.95 ± 0.42

Sequence | self-splicing fitness (ln) (30 °C) | self-splicing fitness (ln) (37 °C)
UACAAGCAAUAUUACGCUAA | -1.95 ± 0.11 | -1.35 ± 0.11
GUUCAGCAAUAUUACGCCAG | -2.06 ± 0.29 | 
AGCUAGCAAUAUUACGGUAA | -2.34 ± 0.26 | -1.53 ± 0.26
GUGAAGCAAUAUUACGCUUU | -4.83 ± 0.36 | -2.84 ± 0.43
GGGGAGCAAUAUUACGUAUG |  | -1.58 ± 0.31
GGAUAGCAAUAUUACGUUAA | -2.35 ± 0.16 | -1.9 ± 0.16
UCGUAGCAAUAUUACGGAUC | -3.32 ± 0.45 | -2.85 ± 0.48
GAGAAGCAAUAUUACGGGUC | -3.08 ± 0.15 | -2.24 ± 0.16
CGAAAGCAAUAUUACGCUGC | -3.68 ± 0.23 | -2.69 ± 0.19
UUAGAGCAAUAUUACGCGUG | -0.924 ± 0.086 | 0.00533 ± 0.11
ACGGAGCAAUAUUACGACGU | -2.27 ± 0.17 | -1.56 ± 0.23
CGGGAGCAAUAUUACGUUCG | -3.74 ± 0.47 | -1.75 ± 0.27
UUCUAGCAAUAUUACGCGGA | -3.93 ± 0.3 | -3.75 ± 0.33
UCUAAGCAAUAUUACGGGGC |  | -2.21 ± 0.32
UUCCAGCAAUAUUACGGAGC | -4.31 ± 0.31 | -2.99 ± 0.47
AGUCAGCAAUAUUACGGAGC | -2.57 ± 0.12 | -1.74 ± 0.13
UAUAAGCAAUAUUACGGCUG | 0.381 ± 0.13 | 0.0603 ± 0.14
